Results as given in publication PMC2566870.
Blank lines part the entries; values can stand above or below the substance they belong to.

What was measured:
Assay in all cases: SEC
[1] = target: Hera_core (aa 1-365) (Thermus thermophilus HB27)
[2] = target: Hera_core_E115C/R260C (Thermus thermophilus HB27)
[3] = target: Thermus thermophilus DEAD box helicase Hera, wild-type (Thermus thermophilus HB27) (UniProt Q72GF3)
[4] = target: Hera_CTD (C-terminal domain of Hera, amino acids 370-511) (Thermus thermophilus HB27)
[5] = target: Hera_E115C/R260C (Thermus thermophilus HB27)

stoichiometry N [1]: 2
Substance: Hera_core (aa 1-365) (domain or fragment)

stoichiometry N [2]: 2
Substance: Hera_core_E115C/R260C (domain or fragment)

stoichiometry N [3]: 2
Substance: Thermus thermophilus DEAD box helicase Hera, wild-type (from UniProt Q72GF3 1-517) (enzyme)

stoichiometry N [4]: 2
Substance: Hera_CTD (C-terminal domain of Hera, amino acids 370-511) (domain or fragment)

stoichiometry N [5]: 2
Substance: Hera_E115C/R260C (enzyme)
